# Measurements taken from patent US20120225828A1.
# Bridge positions count the residues as written; N and C are the ends. Square brackets hold non-standard residues; d marks the D form. Nle = CCCC[C@H](N)C(=O)O; Dab = NCC[C@H](N)C(=O)O
# B1: Ac-Nle-cyclo(Glu-His-D-Phe-Gly-Dab)-Trp-NH2 (SEQ ID NO: 50) (peptide)
# peptide: Ac-[Nle]EH[dF]G[Dab]W-NH2
# modifications: lactam 2-6
# SMILES: CCCC[C@H](NC(C)=O)C(=O)N[C@H]1CCC(=O)NCC[C@@H](C(=O)N[C@@H](Cc2c[nH]c3ccccc23)C(N)=O)NC(=O)CNC(=O)[C@@H](Cc2ccccc2)NC(=O)[C@H](Cc2c[nH]cn2)NC1=O
# B2: Ac-Nle-cyclo(Glu-His-D-Phe-Ala-Dab)-Trp-NH2 (SEQ ID NO: 51) (peptide)
# peptide: Ac-[Nle]EH[dF]A[Dab]W-NH2
# modifications: lactam 2-6
# SMILES: CCCC[C@H](NC(C)=O)C(=O)N[C@H]1CCC(=O)NCC[C@@H](C(=O)N[C@@H](Cc2c[nH]c3ccccc23)C(N)=O)NC(=O)[C@H](C)NC(=O)[C@@H](Cc2ccccc2)NC(=O)[C@H](Cc2c[nH]cn2)NC1=O
# B3: Ac-Nle-cyclo(Glu-His-D-Phe-Ala-Dab)-Trp-NH2 (peptide)
# peptide: Ac-[Nle]EH[dF]A[Dab]W-NH2
# modifications: lactam 2-6
# SMILES: CCCC[C@H](NC(C)=O)C(=O)N[C@H]1CCC(=O)NCC[C@@H](C(=O)N[C@@H](Cc2c[nH]c3ccccc23)C(N)=O)NC(=O)[C@H](C)NC(=O)[C@@H](Cc2ccccc2)NC(=O)[C@H](Cc2c[nH]cn2)NC1=O
# B4: Ac-Nle-cyclo(Glu-His-D-Phe-Arg-Dab)-Lys-NH2 (SEQ ID NO: 55) (peptide)
# peptide: Ac-[Nle]EH[dF]R[Dab]K-NH2
# modifications: lactam 2-6
# SMILES: CCCC[C@H](NC(C)=O)C(=O)N[C@H]1CCC(=O)NCC[C@@H](C(=O)N[C@@H](CCCCN)C(N)=O)NC(=O)[C@H](CCCNC(=N)N)NC(=O)[C@@H](Cc2ccccc2)NC(=O)[C@H](Cc2c[nH]cn2)NC1=O
# Target: recombinant human melanocortin-1 receptor hMCR-1a (human) (UniProt Q01726)
# Sequence (Q01726 whole entry): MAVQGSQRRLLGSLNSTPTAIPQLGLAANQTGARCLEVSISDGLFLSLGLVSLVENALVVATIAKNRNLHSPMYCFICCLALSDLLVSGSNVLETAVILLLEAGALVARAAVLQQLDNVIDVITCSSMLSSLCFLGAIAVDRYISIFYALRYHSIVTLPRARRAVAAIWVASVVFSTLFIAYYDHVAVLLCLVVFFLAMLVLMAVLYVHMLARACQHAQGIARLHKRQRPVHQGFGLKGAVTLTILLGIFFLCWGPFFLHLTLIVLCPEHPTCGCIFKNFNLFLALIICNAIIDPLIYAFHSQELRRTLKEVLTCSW
# Test: competition with [I125]-NDP-α-MSH; HEK-293 hMCR-1a membrane homogenates
row,Binder,Ki
1,B1,9 nM
2,B2,0.08 nM
3,B3,0.08 nM
4,B4,2 nM

# Target: recombinant human melanocortin-4 receptor hMCR-4 (human) (UniProt P32245)
# Sequence (P32245 whole entry): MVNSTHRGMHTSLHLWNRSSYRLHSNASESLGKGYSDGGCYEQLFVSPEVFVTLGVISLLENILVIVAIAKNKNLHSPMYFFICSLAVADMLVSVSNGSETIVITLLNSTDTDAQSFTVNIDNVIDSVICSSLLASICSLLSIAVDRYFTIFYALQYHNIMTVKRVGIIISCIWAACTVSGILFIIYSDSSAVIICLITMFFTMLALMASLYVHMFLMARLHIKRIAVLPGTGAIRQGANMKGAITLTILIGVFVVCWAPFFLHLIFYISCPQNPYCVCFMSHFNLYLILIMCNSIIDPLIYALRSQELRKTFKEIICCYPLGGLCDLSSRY
# Test: competition with [I125]-NDP-α-MSH; HEK-293 hMCR-4 membrane homogenates
row,Binder,Ki
1,B1,10000 nM
2,B2,10000 nM
3,B4,7380 nM
